# In IntAct's records for PubMed 31515488:
# B1: Microtubule-associated tumor suppressor candidate 2 (Homo sapiens), Q5JR59-3 (parent)
# chain: MGHCCCKPYNCLQCLDKTNESALVKEKELSIELANIRDEVAFHTAKCEKLQKEKEELERRFEDEVKRLGWQQQAELQELEERLQLQFEAEMARLQEEHGDQLLSIRCQHQEQVEDLTASHDAALLEMENNHTVAITILQDDHDHKVQELMSTHELEKKELEENFEKLRLSLQDQVDTLTFQSQSLRDRARRFEEALRKNTEEQLEIALAPYQHLEEDMKSLKQVLEMKNQQIHEQEKKILELEKLAEKNIILEEKIQVLQQQNEDLKARIDQNTVVTRQLSEENANLQEYVEKETQEKKRLSRTNEELLWKLQTGDPTSPIKLSPTSPVYRGSSSGPSSPARVSTTPR
# partner: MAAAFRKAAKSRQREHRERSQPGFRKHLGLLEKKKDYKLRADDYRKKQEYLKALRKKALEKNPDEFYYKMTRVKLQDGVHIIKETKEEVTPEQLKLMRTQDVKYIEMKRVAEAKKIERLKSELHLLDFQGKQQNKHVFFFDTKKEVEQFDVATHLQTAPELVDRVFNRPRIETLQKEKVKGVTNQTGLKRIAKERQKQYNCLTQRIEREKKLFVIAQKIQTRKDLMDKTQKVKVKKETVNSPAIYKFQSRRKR
# B2: Protein BANP (Homo sapiens), Q8N9N5-2 (parent)
# chain: MMSEHDLADVVQIAVEDLSPDHPVVLENHVVTDEDEPALKRQRLEINCQDPSIKSFLYSINQTICLRLDSIEAKLQALEATCKSLEEKLDLVTNKQHSPIQVPMVAGSPLGATQTCNKVRCAVPGRRQNTIVVKVPGQEDSHHEDGESGSEASDSVSSCGQAGSQSIGSNVTLITLNSEEDYPNGTWLGDENNPEMRVRCAIIPSDMLHISTNCRTAEKMALTLLDYLFHREVQAVSNLSGQGKHGKKQLDPLTIYGIRCHLFYKFGITESDWYRIKQSIDSKCRTAWRRKQRGQSLAVKSFSRRTPNSSSYCPSEPMMSTPPPASELPQPQPQPQALHYALANAQQVQIHQIGEDGQVQVIPQGHLHIAQVPQGEQVQITQDSEGNLQIHHVGQDGQVLQGAQLIAVASSDPAAAGVDGSPLQGSDIQVQYVQLAPVSDHTAGAQTAEALQPTLQPEMQLEHGAIQIQ
# partner: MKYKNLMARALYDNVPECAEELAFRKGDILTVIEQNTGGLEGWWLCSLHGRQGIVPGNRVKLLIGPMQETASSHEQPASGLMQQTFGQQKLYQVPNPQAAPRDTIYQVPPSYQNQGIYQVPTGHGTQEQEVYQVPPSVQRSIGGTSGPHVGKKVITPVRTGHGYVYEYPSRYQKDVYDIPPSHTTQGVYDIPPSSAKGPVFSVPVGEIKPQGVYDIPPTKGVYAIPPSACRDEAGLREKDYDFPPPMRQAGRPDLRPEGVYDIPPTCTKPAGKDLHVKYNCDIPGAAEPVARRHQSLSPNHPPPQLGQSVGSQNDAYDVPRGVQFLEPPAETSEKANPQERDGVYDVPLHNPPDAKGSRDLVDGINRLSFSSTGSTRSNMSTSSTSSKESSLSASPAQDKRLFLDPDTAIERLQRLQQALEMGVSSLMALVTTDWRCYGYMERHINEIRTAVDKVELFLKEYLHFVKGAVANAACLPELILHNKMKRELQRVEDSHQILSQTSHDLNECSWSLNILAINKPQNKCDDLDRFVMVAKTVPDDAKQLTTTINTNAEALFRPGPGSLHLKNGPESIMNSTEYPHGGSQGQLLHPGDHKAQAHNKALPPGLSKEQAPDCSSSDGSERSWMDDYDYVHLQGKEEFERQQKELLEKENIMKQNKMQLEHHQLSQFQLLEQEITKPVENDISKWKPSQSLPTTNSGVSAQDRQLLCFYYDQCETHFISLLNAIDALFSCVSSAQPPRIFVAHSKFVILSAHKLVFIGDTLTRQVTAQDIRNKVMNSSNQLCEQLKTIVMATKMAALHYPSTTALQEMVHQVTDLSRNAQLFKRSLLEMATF
# B3: MIF4G domain-containing protein (Homo sapiens), A9UHW6 (parent)
# chain: MGEPSREEYKIQSFDAETQQLLKTALKDPGAVDLEKVANVIVDHSLQDCVFSKEAGRMCYAIIQAESKQAGQSVFRRGLLNRLQQEYQAREQLRARSLQGWVCYVTFICNIFDYLRVNNMPMMALVNPVYDCLFRLAQPDSLSKEEEVDCLVLQLHRVGEQLEKMNGQRMDELFVLIRDGFLLPTGLSSLAQLLLLEIIEFRAAGWKTTPAAHKYYYSEVSD
# B4: Four and a half LIM domains protein 2 (Homo sapiens), Q14192 (parent)
# chain: MTERFDCHHCNESLFGKKYILREESPYCVVCFETLFANTCEECGKPIGCDCKDLSYKDRHWHEACFHCSQCRNSLVDKPFAAKEDQLLCTDCYSNEYSSKCQECKKTIMPGTRKMEYKGSSWHETCFICHRCQQPIGTKSFIPKDNQNFCVPCYEKQHAMQCVQCKKPITTGGVTYREQPWHKECFVCTACRKQLSGQRFTARDDFAYCLNCFCDLYAKKCAGCTNPISGLGGTKYISFEERQWHNDCFNCKKCSLSLVGRGFLTERDDILCPDCGKDI
# B5: Segment polarity protein dishevelled homolog DVL-2 (Homo sapiens), O14641 (parent)
# chain: MAGSSTGGGGVGETKVIYHLDEEETPYLVKIPVPAERITLGDFKSVLQRPAGAKYFFKSMDQDFGVVKEEISDDNARLPCFNGRVVSWLVSSDNPQPEMAPPVHEPRAELAPPAPPLPPLPPERTSGIGDSRPPSFHPNVSSSHENLEPETETESVVSLRRERPRRRDSSEHGAGGHRTGGPSRLERHLAGYESSSTLMTSELESTSLGDSDEEDTMSRFSSSTEQSSASRLLKRHRRRRKQRPPRLERTSSFSSVTDSTMSLNIITVTLNMEKYNFLGISIVGQSNERGDGGIYIGSIMKGGAVAADGRIEPGDMLLQVNDMNFENMSNDDAVRVLRDIVHKPGPIVLTVAKCWDPSPQAYFTLPRNEPIQPIDPAAWVSHSAALTGTFPAYPGSSSMSTITSGSSLPDGCEGRGLSVHTDMASVTKAMAAPESGLEVRDRMWLKITIPNAFLGSDVVDWLYHHVEGFPERREARKYASGLLKAGLIRHTVNKITFSEQCYYVFGDLSGGCESYLVNLSLNDNDGSSGASDQDTLAPLPGATPWPLLPTFSYQYPAPHPYSPQPPPYHELSSYTYGGGSASSQHSEGSRSSGSTRSDGGAGRTGRPEERAPESKSGSGSESEPSSRGGSLRRGGEASGTSDGGPPPSRGSTGGAPNLRAHPGLHPYGPPPGMALPYNPMMVVMMPPPPPPVPPAVQPPGAPPVRDLGSVPPELTASRQSFHMAMGNPSEFFVDVM
# partner: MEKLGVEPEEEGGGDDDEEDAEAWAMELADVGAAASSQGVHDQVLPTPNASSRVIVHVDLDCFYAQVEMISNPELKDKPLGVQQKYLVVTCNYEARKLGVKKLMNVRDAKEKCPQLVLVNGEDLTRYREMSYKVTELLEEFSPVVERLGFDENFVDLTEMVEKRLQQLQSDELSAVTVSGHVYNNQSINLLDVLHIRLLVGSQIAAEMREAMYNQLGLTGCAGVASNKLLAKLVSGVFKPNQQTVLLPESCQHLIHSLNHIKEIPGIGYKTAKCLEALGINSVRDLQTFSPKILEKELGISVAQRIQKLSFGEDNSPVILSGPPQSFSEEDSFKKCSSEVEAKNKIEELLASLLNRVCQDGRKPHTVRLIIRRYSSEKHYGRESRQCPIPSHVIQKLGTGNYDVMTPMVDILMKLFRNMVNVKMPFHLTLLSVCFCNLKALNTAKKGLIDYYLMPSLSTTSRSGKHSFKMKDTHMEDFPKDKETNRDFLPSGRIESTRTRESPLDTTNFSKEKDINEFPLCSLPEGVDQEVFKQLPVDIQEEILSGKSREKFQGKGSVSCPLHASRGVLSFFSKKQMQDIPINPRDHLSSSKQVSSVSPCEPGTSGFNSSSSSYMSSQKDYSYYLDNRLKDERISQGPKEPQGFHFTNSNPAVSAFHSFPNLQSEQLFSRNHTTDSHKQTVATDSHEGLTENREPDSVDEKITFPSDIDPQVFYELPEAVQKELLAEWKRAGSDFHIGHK
# B6: Isoform 1 of Equilibrative nucleoside transporter 1 (Homo sapiens), Q99808-1 (parent)
# chain: MTTSHQPQDRYKAVWLIFFMLGLGTLLPWNFFMTATQYFTNRLDMSQNVSLVTAELSKDAQASAAPAAPLPERNSLSAIFNNVMTLCAMLPLLLFTYLNSFLHQRIPQSVRILGSLVAILLVFLITAILVKVQLDALPFFVITMIKIVLINSFGAILQGSLFGLAGLLPASYTAPIMSGQGLAGFFASVAMICAIASGSELSESAFGYFITACAVIILTIICYLGLPRLEFYRYYQQLKLEGPGEQETKLDLISKGEEPRAGKEESGVSVSNSQPTNESHSIKAILKNISVLAFSVCFIFTITIGMFPAVTVEVKSSIAGSSTWERYFIPVSCFLTFNIFDWLGRSLTAVFMWPGKDSRWLPSLVLARLVFVPLLLLCNIKPRRYLTVVFEHDAWFIFFMAAFAFSNGYLASLCMCFGPKKVKPAEAETAGAIMAFFLCLGLALGAVFSFLFRAIV
# partner: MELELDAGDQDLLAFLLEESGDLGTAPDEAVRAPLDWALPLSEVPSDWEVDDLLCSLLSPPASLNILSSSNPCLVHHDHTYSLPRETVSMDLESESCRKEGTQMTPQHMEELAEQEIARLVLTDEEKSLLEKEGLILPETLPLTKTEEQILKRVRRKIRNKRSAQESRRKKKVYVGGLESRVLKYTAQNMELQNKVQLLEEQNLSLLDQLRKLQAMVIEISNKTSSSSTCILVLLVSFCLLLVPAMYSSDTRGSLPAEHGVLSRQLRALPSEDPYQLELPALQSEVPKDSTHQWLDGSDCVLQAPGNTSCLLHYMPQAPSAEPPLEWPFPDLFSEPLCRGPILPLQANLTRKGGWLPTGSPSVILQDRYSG
# B7: Zinc finger protein RFP (Homo sapiens), P14373 (parent)
# chain: MASGSVAECLQQETTCPVCLQYFAEPMMLDCGHNICCACLARCWGTAETNVSCPQCRETFPQRHMRPNRHLANVTQLVKQLRTERPSGPGGEMGVCEKHREPLKLYCEEDQMPICVVCDRSREHRGHSVLPLEEAVEGFKEQIQNQLDHLKRVKDLKKRRRAQGEQARAELLSLTQMEREKIVWEFEQLYHSLKEHEYRLLARLEELDLAIYNSINGAITQFSCNISHLSSLIAQLEEKQQQPTRELLQDIGDTLSRAERIRIPEPWITPPDLQEKIHIFAQKCLFLTESLKQFTEKMQSDMEKIQELREAQLYSVDVTLDPDTAYPSLILSDNLRQVRYSYLQQDLPDNPERFNLFPCVLGSPCFIAGRHYWEVEVGDKAKWTIGVCEDSVCRKGGVTSAPQNGFWAVSLWYGKEYWALTSPMTALPLRTPLQRVGIFLDYDAGEVSFYNVTERCHTFTFSHATFCGPVRPYFSLSYSGGKSAAPLIICPMSGIDGFSGHVGNHGHSMETSP
# partner: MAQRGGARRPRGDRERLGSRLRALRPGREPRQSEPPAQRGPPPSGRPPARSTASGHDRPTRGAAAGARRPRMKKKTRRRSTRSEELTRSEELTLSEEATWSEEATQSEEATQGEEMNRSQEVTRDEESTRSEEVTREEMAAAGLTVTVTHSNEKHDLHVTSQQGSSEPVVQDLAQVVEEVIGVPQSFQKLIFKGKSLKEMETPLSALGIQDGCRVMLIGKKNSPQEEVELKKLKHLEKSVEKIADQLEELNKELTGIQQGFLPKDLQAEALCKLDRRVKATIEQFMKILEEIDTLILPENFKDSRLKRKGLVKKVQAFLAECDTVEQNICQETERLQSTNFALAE
# Variants of: B1
# Details: with utp11_human UTP11, Q9Y3A2
row,effect of a mutation on the interaction,Variant
1,with no effect,A89V

# Variants of: B2
# Details: with casl_human NEDD9, Q14511
row,effect of a mutation on the interaction,Variant
1,with no effect,A162V

# Variants of: B3
# Details: with hgs_human HGS
row,effect of a mutation on the interaction,Variant
1,with no effect,E160K

# Variants of: B4
# Details: with inca1_human INCA1, Q0VD86
# Chain of inca1_human INCA1, Q0VD86 (Q0VD86 whole entry): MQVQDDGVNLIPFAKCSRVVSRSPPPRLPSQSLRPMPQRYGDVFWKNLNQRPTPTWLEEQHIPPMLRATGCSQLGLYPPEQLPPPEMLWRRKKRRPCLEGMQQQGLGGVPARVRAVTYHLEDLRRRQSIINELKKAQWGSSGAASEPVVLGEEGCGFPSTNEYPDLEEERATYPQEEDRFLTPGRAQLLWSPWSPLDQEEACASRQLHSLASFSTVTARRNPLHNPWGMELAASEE
row,effect of a mutation on the interaction,Variant
1,with no effect,A37S
2,with no effect,N95K

# Variants of: B4
# Details: with gbg12_human GNG12, Q9UBI6
# Chain of gbg12_human GNG12, Q9UBI6 (Q9UBI6 whole entry): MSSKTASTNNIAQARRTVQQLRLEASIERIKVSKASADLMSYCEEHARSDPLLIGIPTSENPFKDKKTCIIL
row,effect of a mutation on the interaction,Variant
1,with no effect,R177Q

# Variants of: B5
# Details: with poli_human POLI
row,effect of a mutation on the interaction,Variant
1,with no effect,A53V
2,with no effect,T535I

# Variants of: B6
# Details: with creb3_human CREB3, O43889
row,effect of a mutation on the interaction,Variant
1,with no effect,A293T

# Variants of: B7
# Details: with bag1_human BAG1, Q99933
row,effect of a mutation on the interaction,Variant
1,with no effect,N355S
